Target: stanniocalcin 2 (STC2), recombinant (mouse) (UniProt O88452)
Assay: quartz crystal microbalance (QCM); STC2 (50 µg/mL) immobilised by amine coupling on LNB chip, Attana Cell 200; HRG injected at 50, 100 and 200 nM; PBS running buffer, 10 µL/min, 22 °C, 500 s dissociation; 1:1 global interaction model

Sequence of UniProt O88452 (O88452 25-296): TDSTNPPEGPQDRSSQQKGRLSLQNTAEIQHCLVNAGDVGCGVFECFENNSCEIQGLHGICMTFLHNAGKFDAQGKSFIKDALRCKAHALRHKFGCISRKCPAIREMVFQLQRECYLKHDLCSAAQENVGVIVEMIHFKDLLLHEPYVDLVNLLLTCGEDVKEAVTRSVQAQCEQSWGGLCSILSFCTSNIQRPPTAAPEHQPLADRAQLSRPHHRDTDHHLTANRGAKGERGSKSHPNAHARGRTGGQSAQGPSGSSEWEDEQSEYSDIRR

- Kd: 55 nM
- koff: 0.0014 s⁻¹
- kon: 26000 M⁻¹ s⁻¹
Substance: histidine-rich glycoprotein (HRG), recombinant, active (from UniProt Q9ESB3 19-525) (natural protein)
